Laboratory results reported in patent US20250154283A1 (published 2025).

B1: 27_Lib4_scFv (scFv)
scFv: QVQLQESGPGLVKPSQTLSLTCTVSGASFGDHYWSWIRQPPGKGLEWIGYIDATGSIDYNPSLKSRVTMSVDTSKNQFSLKVNSVTAADTAVYYCARVASYYYYMDVWGKGTTVTVSSSGGSTITSYNVYYTKLSSSGTEIVMTQSPATLSLSPGERATLSCRASQSITGSYLAWYQQKPGQAPRLLIYGASDRAPGIPARFSGSGSGTDFTLTISSLEPEDFAVYYCQQYGSFPYTFGGGTKVEIK
notes: VH-linker-VL; not shown: C-terminal 3xFLAG and SV5 tags
B2: 256_Lib8_scFv (scFv)
scFv: EVQLVESGGGLVQPGRSLRLSCAASGFTVSSNAMHWVRQAPGKGLEWVSAIGTFADTDYADSVEGRFTISRDNAKNSLYLQMNSLRAEDTAVYYCAREGAAAGTNFDYWGQGTLVTVSSSGGSTITSYNVYYTKLSSSGTDIQMTQSPSSLSASVGDRVTITCRASQGIRSYLAWYQQKPGKAPKLLIYGASTLEGGVPSRFSGSGSGTDFTLTISSLQPEDVATYYCQQSYSTPPKFGGGTKVEIK
notes: as for B1
B3: 11485_Lib1_scFv (scFv)
scFv: QVQLVQSGAEVKKPGASVKVSCKVSGAPSAAIIHWVRQAPGKGLEWMGGFTQIFGTAIYAQKFQGRVTMTEDTSTDTAYMELSSLKSEDTAVYYCAREGIGGHDAFDIWGQGTMVTVSSSGGSTITSYNVYYTKLSSSGTDIQMTQSPSSVSASVGDRVTITCRASQDISKNLAWYQQKPGKAPKLLIYKASKLESGVPSRFSGSGSGTDFTLTISSLQPEDFANYYCLHDYTYPPTFGGGTKVEIK
notes: as for B1
B4: 4956_Lib1_scFv (scFv)
scFv: QVQLVQSGAEVKKPGASVKVSCKVSGYTLTSNYIHWVRQAPGKGLEWMGGFNPSSGSTIYAQKFQGRVTMTEDTSTDTAYMELSSLKSEDTAVYYCARTLYDFWSGYLDAFDIWGQGTMVTVSSSGGSTITSYNVYYTKLSSSGTDIQMTQSPSSVSASVGDRVTITCRASQNIRSSLAWYQQKPGKAPKLLIYAASNLEPGVPSRFSGSGSGTDFTLTISSLQPEDFANYYCQQYEDTPLTFGGGTKVEIK
notes: as for B1
B5: 965_Lib4_scFv (scFv)
scFv: QVQLQESGPGLVKPSQTLSLTCTVSGASFGDNYWSWIRQPPGKGLEWIGYIDTSGSSDYNPSLKSRVTMSVDTSKNQFSLKVNSVTAADTAVYYCARDALGYYYMDVWGKGTTVTVSSSGGSTITSYNVYYTKLSSSGTEIVMTQSPATLSLSPGERATLSCRASQGISGRLAWYQQKPGQAPRLLIYDASARASGIPARFSGSGSGTDFTLTISSLEPEDFAVYYCQQYGTSPYTFGGGTKVEIK
notes: as for B1
B6: 15244_Lib8_scFv (scFv)
scFv: EVQLVESGGGLVQPGRSLRLSCAASGFTFADYDMHWVRQAPGKGLEWVSATSSHGVTTDYADSVEGRFTISRDNAKNSLYLQMNSLRAEDTAVYYCARGAWSGIAARQYIDYWGQGTLVTVSSSGGSTITSYNVYYTKLSSSGTDIQMTQSPSSLSASVGDRVTITCRASQTIGYWLAWYQQKPGKAPKLLIYDASVPESGVPSRFSGSGSGTDFTLTISSLQPEDVATYYCQQSYSYPLTFGGGTKVEIK
notes: as for B1
B7: Lib6_P3_A8_scFv (scFv)
scFv: EVQLVQSGAEVKKPGASVKVSCKASGYRFTNYDISWVRQAPGQGLEWMGGINPSSGITIYAQKLQGRGTMTTDPSTSTAYMELRSLRSDDTAVYYCARGAAYGDYLDYWGQGTLVTVSSSGGSTITSYNVYYTKLSSSGTESALTQPASVSGSPGQSITISCTGTNLGEKYVSWYQQHPGKAPKLMIYSTSQRPSGVSNRFSGSKSGNTASLTITGLQAEDEADYYCSSYTASSTPGLVFGGGTKLTVL
notes: as for B1
B8: 2301_Lib4_scFv (scFv)
scFv: QVQLQESGPGLVKPSQTLSLTCTVSGASISTSDHSWSWIRQPPGKGLEWIGYIRDTGSTDYNPSLKSRVTMSVDTSKNQFSLKVNSVTAADTAVYYCAISSTERWKQSFGVDTEYFQHWGQGTLVTVSSSGGSTITSYNVYYTKLSSSGTEIVMTQSPATLSLSPGERATLSCRASRYVSTNLAWYQQKPGQAPRLLIYDAVTRAPGIPARFSGSGSGTDFTLTISSLEPEDFAVYYCQQYHSLPLIFGGGTKVEIK
notes: as for B1
B9: 96_Lib4_scFv (scFv)
scFv: QVQLQESGPGLVKPSQTLSLTCTVSGESFSTSYWSWIRQPPGKGLEWIGYITHSGYTDYNPSLKSRVTMSVDTSKNQFSLKVNSVTAADTAVYYCARGGRFPFWYFDLWGRGSLVTVSSSGGSTITSYNVYYTKLSSSGTEIVMTQSPATLSLSPGERATLSCRASRSIGSNLAWYQQKPGQAPRLLIYGATTRATGIPARFSGSGSGTDFTLTISSLEPEDFAVYYCQQYKNDATFGGGTKVEIK
notes: as for B1
B10: Lib4_P2_A3_scFv (scFv)
scFv: QVQLQESGPGLVKPSQTLSLTCTVSGVSLSTSDYSWSWIRQPPGKGLEWIGYISPPGRSDYNPSLKSRVTMSVDTSKNQFSLKVNSVTAADTAVYYCARHSSSGWYSTYDFDSWGQGTMVTVSSSGGSTITSYNVYYTKLSSSGTEIVMTQSPATLSLSPGERATLSCRASQNIHSNLAWYQQKPGQAPRLLIYGATTRATGIPARFSGSGSGTDFTLTISSLEPEDFAVYYCQQSYTTPLTFGGGTKVEIK
notes: as for B1
B11: Lib6_P3_A1_scFv (scFv)
scFv: QVQLVQSGAEVKKPGASVKVSCKVSGDTLSNYAIHWVRQAPGKGLEWMGGINPNAGTTIYAQKFQGRVTMTEDTSTDTAYMELSSLKSEDTAVYYCARDSSSWCPVGYYYYYMDVWGKGTTVTVSSSGGSTITSYNVYYTKLSSSGTDIQMTQSPSSVSASVGDRVTITCRASQSIGDFLAWYQQKPGKAPKLLIYDASHLQTGVPSRFSGSGSGTDFTLTISSLQPEDFANYYCQQTSTIPPTFGGGTKVEIK
notes: as for B1
B12: Lib4_P2_A2_scFv (scFv)
scFv: B11 scFv
notes: as for B1
B13: Lib6_P3_E10_scFv (scFv)
scFv: B11 scFv
notes: as for B1
B14: Lib4_P2_B1_scFv (scFv)
scFv: B11 scFv
notes: as for B1
B15: 4035_Lib1_scFv (scFv)
scFv: QVQLVQSGAEVKKPGASVKVSCKVSGYAFPSYGIHWVRQAPGKGLEWMGGISAFTGDTIYAQKFQGRVTMTEDTSTDTAYMELSSLKSEDTAVYYCASGPTNVLTGLMESAEYFQHWGQGTLVTVSSSGGSTITSYNVYYTKLSSSGTDIQMTQSPSSVSASVGDRVTITCRASQGISRDLAWYQQKPGKAPKLLIYGASGRATGVPSRFSGSGSGTDFTLTISSLQPEDFANYYCQQSYITPTTFGGGTKVEIK
notes: as for B1
B16: 399_Lib1_scFv (scFv)
scFv: QVQLVQSGAEVKKPGASVKVSCKVSGITFTSDYIHWVRQAPGKGLEWMGGMNPYSNKAIYAQKFQGRVTMTEDTSTDTAYMELSSLKSEDTAVYYCATGGLRIAARTSYFDYWGQGTLVTVSSSGGSTITSYNVYYTKLSSSGTDIQMTQSPSSVSASVGDRVTITCRASMDIAGSLAWYQQKPGKAPKLLIYDTSFRATGVPSRFSGSGSGTDFTLTISSLQPEDFANYYCQQYDNPPRLTFGGGTKVEIK
notes: as for B1
B17: Lib4_P2_A10_scFv (scFv)
scFv: QVQLQESGPGLVKPSQTLSLTCTVSGASLGHQYWSWIRQPPGKGLEWIGYIDTSGSTDYNPSLKSRVTMSVDTSKNQFSLKVNSVTAADTAVYYCARVANYYYYMDVWGKGTTVTVSSSGGSTITSYNVYYTKLSSSGTEIVMTQSPATLSLSPGERATLSCRASQSVSNRLAWYQQKPGQAPRLLIYDASNRATGIPARFSGSGSGTDFTLTISSLEPEDFAVYYCQQYFITPSTFGGGTKVEIK
notes: as for B1
B18: 487_Lib1_scFv (scFv)
scFv: QVQLVQSGAEVKKPGASVKVSCKVSGYTFTSHIIHWVRQAPGKGLEWMGGMNPYSNKAIYAQKFQGRVTMTEDTSTDTAYMELSSLKSEDTAVYYCARDASDYGDYGYYYYYMDVWGKGTTVTVSSSGGSTITSYNVYYTKLSSSGTDIQMTQSPSSVSASVGDRVTITCRASQSIGDFLAWYQQKPGKAPKLLIYDASHLQTGVPSRFSGSGSGTDFTLTISSLQPEDFANYYCQQTSTIPPTFGGGTKVEIK
notes: as for B1

target: T1, biotinylated human VWF cysteine knot (CK) domain construct (human, UniProt P04275 2724-2813, biotinylated in vitro (BirA) on the biotinylation tag; one N-glycan); experiment: SPR, scFv captured via anti-SV5, CK domain injected, pH 5.5, apparent Kd;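 further: scFvs from crude yeast supernatants captured on chip-bound anti-SV5 antibody, Kd computed as koff divided by kon, dimeric CK construct likely makes affinity appear higher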
T1 construct: Expressed in HEK293 EBNA cells; disulfide-linked homodimer; also called human VWF CK; human VWF CK domain; not shown: in vitro biotinylation tag, HRV-3C site and 3 VWF residues before the CK domain

Compared with B1, B2 is 1.7-fold higher in Kd: 0.443 nM for the first, 0.731 nM for the second.

B3 and B4 are within 1.5-fold of each other in Kd: 1.82 nM for the first, 1.91 nM for the second.

First: B5
Second: B6
The Kd of the first is 1.7-fold lower: 0.621 nM for the first, 1.05 nM for the second.

Going from B7 to B8, the Kd rises from 0.872 nM to 3.87 nM (4.4-fold). The first binds more tightly here.

B9 and B10 are within 1.5-fold of each other in Kd: 1.4 nM for the first, 1.93 nM for the second.

Compared with B11, B12 is 2.2-fold lower in Kd: 1.32 nM for the first, 0.604 nM for the second. The second binds more tightly here.

First: B13
Second: B14
The Kd of the first is 3.2-fold lower: 0.659 nM for the first, 2.12 nM for the second. The first binds more tightly here.

Compared with B15, B16 is 11-fold lower in Kd: 1.41 nM for the first, 0.127 nM for the second.

Going from B17 to B18, the Kd falls from 3.36 nM to 0.829 nM (4.1-fold). The second binds more tightly here.

target: T1, biotinylated human VWF cysteine knot …; experiment: SPR, scFv captured via anti-SV5, CK domain injected, pH 7.4, apparent Kd;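 further: scFvs from crude yeast supernatants printed on an amine-coupled anti-SV5 lawn, Kd computed as koff over kon, likely overestimating affinity because the CK construct is dimeric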
From the text: Briefly, a sensor chip was activated and coupled with an anti-SV5 mouse monoclonal antibody using amine coupling. The soluble scFvs in crude yeast supernatants were printed on the anti-SV5 lawn. […] From the measured association (kₒₙ) and dissociation (koff) rate constants, an apparent equilibrium dissociation constant (Kd=koff/kₒₙ) was estimated. Due to the dimeric state of the CK construct and consequent possibility for simultaneous binding of captured scFv to both monomers in the CK dimer, the SPR setup was expected to overestimate the binding affinity.

Going from B1 to B2, the Kd falls from 2.85 nM to 1.76 nM (1.6-fold).

B3 and B4 are the same in Kd: 2.22 nM for the first, 2.22 nM for the second.

B5 and B6 are within 1.5-fold of each other in Kd: 2.79 nM for the first, 3.05 nM for the second.

B7 and B8 are within 1.5-fold of each other in Kd: 2.72 nM for the first, 1.84 nM for the second.

B9 and B10 are within 1.5-fold of each other in Kd: 1.77 nM for the first, 1.48 nM for the second.

B11 and B12 are within 1.5-fold of each other in Kd: 1.41 nM for the first, 2.05 nM for the second.

B13 and B14 are within 1.5-fold of each other in Kd: 1.72 nM for the first, 1.89 nM for the second.

B15 and B16 are within 1.5-fold of each other in Kd: 1.76 nM for the first, 2.62 nM for the second.

First: B17
Second: B18
The Kd of the first is 1.8-fold higher: 2.7 nM for the first, 1.5 nM for the second. The second binds more tightly here.

Target: T2, biotinylated cynomolgus monkey VWF cysteine knot (CK) domain construct (cynomolgus monkey, biotinylated in vitro (BirA) on the biotinylation tag; one N-glycan)
T2 construct: Expressed in HEK293 EBNA cells; disulfide-linked homodimer; also called cyno VWF CK; cyno VWF CK domain; not shown: in vitro biotinylation tag, HRV-3C site and 3 VWF residues before the CK domain
T2 chain: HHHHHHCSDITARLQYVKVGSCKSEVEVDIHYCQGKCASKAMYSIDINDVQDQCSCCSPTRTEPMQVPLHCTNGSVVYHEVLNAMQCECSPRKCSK
Experiment: as above

B1 and B2 are within 1.5-fold of each other in Kd: 0.656 nM for the first, 0.758 nM for the second.

Going from B3 to B4, the Kd falls from 3.16 nM to 1.36 nM (2.3-fold).

First: B5
Second: B6
The Kd of the first is 1.6-fold lower: 1.17 nM for the first, 1.91 nM for the second. The first binds more tightly here.

Going from B7 to B8, the Kd rises from 0.435 nM to 0.803 nM (1.8-fold).

Going from B9 to B10, the Kd falls from 1.21 nM to 0.387 nM (3.1-fold). The second binds more tightly here.

First: B11
Second: B12
The Kd of the first is 18-fold lower: 0.017 nM for the first, 0.305 nM for the second. The first binds more tightly here.

Going from B13 to B14, the Kd falls from 1.96 nM to 0.48 nM (4.1-fold).

Going from B15 to B16, the Kd rises from 0.974 nM to 2.05 nM (2.1-fold).

First: B17
Second: B18
The Kd of the first is 2.1-fold lower: 0.733 nM for the first, 1.51 nM for the second.
